We go through 107 substances from patent US20120128663A1.

The target in this assay is FcRn (human) (UniProt P55899). Description: Biacore; pH 6.0. On the technique in general: SPR reads the build-up and loss of mass on a sensor chip optically.
Sequence of FcRn (human) (P55899 24-297, chain 1 of 2): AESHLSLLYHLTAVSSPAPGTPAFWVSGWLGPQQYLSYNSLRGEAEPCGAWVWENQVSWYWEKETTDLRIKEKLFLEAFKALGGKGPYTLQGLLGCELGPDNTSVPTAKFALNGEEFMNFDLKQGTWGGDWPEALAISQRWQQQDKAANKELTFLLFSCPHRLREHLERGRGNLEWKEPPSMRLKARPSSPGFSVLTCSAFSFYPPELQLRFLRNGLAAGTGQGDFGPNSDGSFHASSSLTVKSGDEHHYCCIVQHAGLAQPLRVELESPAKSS
Sequence of FcRn (human) (P61769 21-119, chain 2 of 2, further chain): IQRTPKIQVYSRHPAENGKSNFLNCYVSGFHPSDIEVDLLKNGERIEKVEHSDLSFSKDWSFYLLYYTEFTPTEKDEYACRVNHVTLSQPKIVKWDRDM

As a reminder, the Kd is a measure of binding affinity in units of concentration. In turn, IgG1 N434S returned a Ka of 1.71e+06 M⁻¹ and a Kd of 583 nM. IgG1 Y436V came in with a Ka of 1.46e+06 M⁻¹ and an equilibrium dissociation constant (Kd) of 683 nM. Taken in the same sequence, the figures for IgG1 Y436W were 1.42e+06 M⁻¹ and 706 nM. A word on the koff: it is a measure of how fast the partners let go of each other. Higher therefore signals a short-lived complex. IgG1/2 M428L/N434S yielded a Ka of 5.92e+06 M⁻¹, a dissociation constant (Kd) of 169 nM and an off-rate constant (koff) of 0.0416 s⁻¹.

Substance IgG1/2 N434S/A378G returned an off-rate constant (koff) of 0.179 s⁻¹. IgG1/2 N434S/A378S: the dissociation rate constant (koff) is 0.0902 s⁻¹.

In the case of IgG1/2 N434S/D249G, the dissociation rate constant (koff) is 0.142 s⁻¹.

IgG1/2 N434S/D312K: the off-rate (koff) worked out at 0.221 s⁻¹. The same measure, in the same setting: next, IgG1/2 N434S/D312R: 0.231 s⁻¹. On the same count and under the same terms, next, IgG1/2 N434S/D312Y: 0.163 s⁻¹; IgG1/2 N434S/H285D: 0.117 s⁻¹. On the same count and under the same terms, the figure for IgG1/2 N434S/H433G is 0.121 s⁻¹; for IgG1/2 N434S/I253M it is 0.818 s⁻¹; for IgG1/2 N434S/I253V it is 0.98 s⁻¹. Turning to IgG1/2 N434S/K248Y, the koff was 0.176 s⁻¹. Take IgG1/2 N434S/K288F: the koff was 0.158 s⁻¹. Same read-out and setting: next, IgG1/2 N434S/K288H: 0.121 s⁻¹; IgG1/2 N434S/K288I: 0.17 s⁻¹. On the same count and under the same terms, the figure for IgG1/2 N434S/K288L is 0.164 s⁻¹; for IgG1/2 N434S/K288N it is 0.147 s⁻¹; for IgG1/2 N434S/K288Q it is 0.162 s⁻¹. Substance IgG1/2 N434S/K288W returned an off-rate constant (koff) of 0.154 s⁻¹. For the substance IgG1/2 N434S/K288Y, the koff was found to be 0.162 s⁻¹.

Substance IgG1/2 N434S/K338H showed a dissociation rate constant (koff) of 0.142 s⁻¹. In the case of IgG1/2 N434S/K338R, the koff turned out to be 0.141 s⁻¹. Still for that read-out and setting: next, IgG1/2 N434S/M428I: 0.117 s⁻¹; IgG1/2 N434S/M428V: 0.153 s⁻¹.

In the case of IgG1/2 N434S/N286D, the Ka stood at 2.36e+06 M⁻¹, the Kd amounted to 423 nM and the off-rate (koff) amounted to 0.0991 s⁻¹. Take IgG1/2 N434S/N286F: the koff was 0.12 s⁻¹. The substance IgG1/2 N434S/N286G gave a dissociation rate constant (koff) of 0.124 s⁻¹. As to IgG1/2 N434S/N286H, the dissociation rate constant (koff) was 0.149 s⁻¹. IgG1/2 N434S/N286I displayed a koff of 0.148 s⁻¹. For the substance IgG1/2 N434S/N286K, the koff came out at 0.272 s⁻¹.

As to IgG1/2 N434S/N286L, the Ka is 2.69e+06 M⁻¹, the dissociation constant Kd was 372 nM and the koff stood at 0.094 s⁻¹. IgG1/2 N434S/N286P: the off-rate (koff) stood at 0.122 s⁻¹. The substance IgG1/2 N434S/N286R yielded a Ka of 2.5e+06 M⁻¹, a dissociation constant (Kd) of 400 nM and a koff of 0.0988 s⁻¹. Consider IgG1/2 N434S/N286V, for which the koff came to 0.143 s⁻¹. Regarding IgG1/2 N434S/N286Y, the koff turned out to be 0.103 s⁻¹.

In the case of IgG1/2 N434S/Q438D, the koff is 0.104 s⁻¹. This koff and that of the substance before are within 1.5-fold of each other. In turn, IgG1/2 N434S/Q438F yielded a koff of 0.122 s⁻¹. The same measure, in the same setting: next, IgG1/2 N434S/Q438G: 0.146 s⁻¹.

IgG1/2 N434S/Q438H registered an off-rate (koff) of 0.164 s⁻¹.

IgG1/2 N434S/Q438I had a koff of 0.104 s⁻¹. Still for that read-out and setting: the figure for IgG1/2 N434S/Q438N is 0.113 s⁻¹. IgG1/2 N434S/Q438S came in with a koff of 0.106 s⁻¹. Same read-out and setting: next, IgG1/2 N434S/Q438W: 0.119 s⁻¹; IgG1/2 N434S/Q438Y: 0.139 s⁻¹. The substance IgG1/2 N434S/R255E yielded an off-rate (koff) of 0.213 s⁻¹. In turn, IgG1/2 N434S/R255F showed a koff of 0.136 s⁻¹.

Take IgG1/2 N434S/R255G: the dissociation rate constant (koff) is 0.189 s⁻¹. Regarding IgG1/2 N434S/R255H, the koff stood at 0.189 s⁻¹. In turn, IgG1/2 N434S/R255I showed a Ka of 2.57e+06 M⁻¹, an equilibrium dissociation constant (Kd) of 390 nM and a koff of 0.0943 s⁻¹. IgG1/2 N434S/R255L: the koff came out at 0.107 s⁻¹. The substance IgG1/2 N434S/R255P showed a koff of 0.0965 s⁻¹. Still for that read-out and setting: next, IgG1/2 N434S/R255Q: 0.186 s⁻¹; IgG1/2 N434S/R255S: 0.169 s⁻¹.

IgG1/2 N434S/R255W registered a koff of 0.107 s⁻¹. Against the preceding substance, the koff is about 1.6-fold lower. Still for that read-out and setting: the figure for IgG1/2 N434S/S426F is 0.285 s⁻¹.

In turn, IgG1/2 N434S/S426H had a koff of 0.134 s⁻¹.

IgG1/2 N434S/S426I: the Ka is 2.23e+06 M⁻¹, the Kd turned out to be 448 nM and the koff stood at 0.0867 s⁻¹. IgG1/2 N434S/S426L came in with a dissociation rate constant (koff) of 0.173 s⁻¹. IgG1/2 N434S/S426M displayed a koff of 0.149 s⁻¹. Still for that read-out and setting: the figure for IgG1/2 N434S/S426W is 0.275 s⁻¹; for IgG1/2 N434S/S426Y it is 0.22 s⁻¹.

With IgG1/2 N434S/T307D, the dissociation rate constant (koff) stood at 0.0749 s⁻¹. This koff lies about 2.9-fold lower than the previous one.

Substance IgG1/2 N434S/T307E returned a koff of 0.0702 s⁻¹. As to IgG1/2 N434S/T307F, the off-rate constant (koff) was 0.087 s⁻¹. This koff and that of the substance before are within 1.5-fold of each other.

On to IgG1/2 N434S/T307G, for which the koff came out at 0.0818 s⁻¹. This koff and that of the substance before are within 1.5-fold of each other. On the same count and under the same terms, the figure for IgG1/2 N434S/T307H is 0.107 s⁻¹; for IgG1/2 N434S/T307I it is 0.111 s⁻¹; for IgG1/2 N434S/T307K it is 0.211 s⁻¹. Same read-out and setting: next, IgG1/2 N434S/T307L: 0.137 s⁻¹; IgG1/2 N434S/T307M: 0.0653 s⁻¹; IgG1/2 N434S/T307N: 0.125 s⁻¹.

With IgG1/2 N434S/T307P, the off-rate (koff) amounted to 0.0702 s⁻¹. Compared with the last substance, the koff is about 1.8-fold lower.

Turning to IgG1/2 N434S/T307R, the koff came out at 0.193 s⁻¹. Same read-out and setting: next, IgG1/2 N434S/T307V: 0.092 s⁻¹. Still for that read-out and setting: the figure for IgG1/2 N434S/T307W is 0.0627 s⁻¹; for IgG1/2 N434S/T307Y it is 0.0847 s⁻¹; for IgG1/2 N434S/V284D it is 0.116 s⁻¹. Substance IgG1/2 N434S/V284E returned a Ka of 2.75e+06 M⁻¹, an equilibrium dissociation constant (Kd) of 363 nM and a koff of 0.0981 s⁻¹. IgG1/2 N434S/V309D showed a koff of 0.359 s⁻¹. The substance IgG1/2 N434S/V309E had a koff of 0.138 s⁻¹. The same measure, in the same setting: the figure for IgG1/2 N434S/V309F is 0.168 s⁻¹; for IgG1/2 N434S/V309H it is 0.364 s⁻¹; for IgG1/2 N434S/V309I it is 0.13 s⁻¹. On the same count and under the same terms, next, IgG1/2 N434S/V309K: 0.617 s⁻¹; IgG1/2 N434S/V309L: 0.137 s⁻¹; IgG1/2 N434S/V309P: 0.16 s⁻¹.

Substance IgG1/2 N434S/V309Q had an off-rate constant (koff) of 0.227 s⁻¹. In the case of IgG1/2 N434S/V309R, the koff came to 0.329 s⁻¹. Take IgG1/2 N434S/V309W: the Ka came out at 3.07e+06 M⁻¹, the Kd was found to be 326 nM and the koff stood at 0.0832 s⁻¹. The substance IgG1/2 N434S/V309Y showed a koff of 0.129 s⁻¹. Same read-out and setting: the figure for IgG1/2 N434S/Y436F is 0.118 s⁻¹. IgG1/2 N434S/Y436H: the Ka was determined as 532000 M⁻¹ and the Kd worked out at 1880 nM. The substance IgG1/2 N434S/Y436I had a Ka of 5.14e+06 M⁻¹ and a dissociation constant Kd of 194 nM. Taken in the same sequence, the figures for IgG1/2 N434S/Y436K were 723000 M⁻¹ and 1380 nM. IgG1/2 N434S/Y436L returned a Ka of 1.65e+06 M⁻¹ and a dissociation constant Kd of 605 nM. IgG1/2 N434S/Y436V gave a Ka of 3.56e+06 M⁻¹ and a Kd of 281 nM. In the case of IgG1/2 N434S/Y436W, the Ka is 2.91e+06 M⁻¹ and the dissociation constant Kd worked out at 344 nM. Substance IgG1/2 Q311L/N434S showed a Ka of 4.34e+06 M⁻¹ and an equilibrium dissociation constant (Kd) of 231 nM. IgG1/2 Q311M/N434S came in with a Ka of 4.64e+06 M⁻¹ and a Kd of 215 nM. On to IgG1/2 Q311V/N434S, for which the Ka was found to be 5.77e+06 M⁻¹ and the equilibrium dissociation constant (Kd) turned out to be 173 nM. Take IgG1/2 WT: the Ka was 131000 M⁻¹ and the Kd turned out to be 7660 nM. On to IgG1/2 Y436I, for which the Ka stood at 1.43e+06 M⁻¹ and the dissociation constant (Kd) is 699 nM. Taken in the same sequence, the figures for IgG1/2 Y436W were 3.15e+06 M⁻¹ and 317 nM. IgG1/2_WT gave a Kd of 1180 nM.
